The nature of data set [1]: surface FLAG IF, nonpermeabilized HEK 293T, cadherin marker. The conditions noted are these: glycan lost; control: wild type.
A short description of data set [2]: confocal IF, colocalisation with calnexin, HEK 293T. To be noted: glycan lost; control: wild type.

B1: SUCNR1/GPR91 (succinate receptor): N8A (protein)
parent chain: MLGIMAWNATCKNWLAAEAALEKYYLSIFYGIEFVVGVLGNTIVVYGYIFSLKNWNSSNIYLFNLSVSDLAFLCTLPMLIRSYANGNWIYGDVLCISNRYVLHANLYTSILFLTFISIDRYLIIKYPFREHLLQKKEFAILISLAIWVLVTLELLPILPLINPVITDNGTTCNDFASSGDPNYNLIYSMCLTLLGFLIPLFVMCFFYYKIALFLKQRNRQVATALPLEKPLNLVIMAVVIFSVLFTPYHVMRNVRIASRLGSWKQYQCTQVVINSFYIVTRPLAFLNSVINPVFYFLLGDHFRDMLMNQLRHNFKSLTSFSRWAHELLLSFREK
With B1, the localisation_or_trafficking entry in data set [1] is reported as “increases”; in data set [2], “changes”.

B2: SUCNR1/GPR91 (succinate receptor): N168A (protein)
parent chain: B1 parent chain
For the protein B2, the localisation_or_trafficking entry in data set [1] and in data set [2] was “no change” in each case.

Source of the values: publication PMC9321536.
